The values below come from patent US20200369769A1.

The target in this assay is PD-L1 (UniProt Q9NZQ7). In words: cell-based or functional assay.
PD-L1, sequence (Q9NZQ7 19-290 limits assumed): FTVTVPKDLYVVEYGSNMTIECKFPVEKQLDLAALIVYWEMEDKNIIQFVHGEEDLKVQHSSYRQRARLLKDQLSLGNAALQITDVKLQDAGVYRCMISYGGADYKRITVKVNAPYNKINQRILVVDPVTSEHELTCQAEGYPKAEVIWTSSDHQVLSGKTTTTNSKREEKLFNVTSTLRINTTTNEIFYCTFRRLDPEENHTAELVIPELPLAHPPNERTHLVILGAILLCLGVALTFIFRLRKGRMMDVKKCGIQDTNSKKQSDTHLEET

Consider “anti-PD-L1 antibody (chimera of the variable domain of atezolizumab with human IgG2 domains)”, for which the IL2 concentration (% over isotype control), mixed lymphocyte reaction (% over isotype control) stood at 247.
